Measurements as given in PMC3859071, “Development of a Multiplex Sandwich Aptamer Microarray for the Detection of VEGF165 and Thrombin”.

Key:
VEGF165 [1] = biological target: T1, VEGF165 (human, UniProt P15692-4 27-191); experiment: sandwich aptamer microarray; detected with VEa5-Cy5; EMSA: TBSE (0.05 mM EDTA, 10 mM Tris-HCl, 100 mM NaCl, pH 7; Vap7 folded with +100 mM KCl), 25 C, 30-60 min, 0.1 uM aptamer; 12% gel in 50 mM glycine pH 9.5 with or without 10 mM KCl. Microarray: TBSE, 25 C, 30 min, PBS washes; conditions: protein: commercial; chain copies: 2
VEGF165 [2] = biological target: T1, VEGF165; experiment: EMSA supershift; 10 uM VEGF165; ternary complex; EMSA: TBSE (0.05 mM EDTA, 10 mM Tris-HCl, 100 mM NaCl, pH 7; Vap7 folded with +100 mM KCl), 25 C, 30-60 min, 0.1 uM aptamer; 12% gel in 50 mM glycine pH 9.5 with or without 10 mM KCl. Microarray: TBSE, 25 C, 30 min, PBS washes; conditions: protein: commercial; chain copies: 2; label: 5'-FAM on strand 2; two separate aptamers, not a duplex
VEGF165 [3] = biological target: T1, VEGF165; experiment: EMSA; 5 uM VEGF165; EMSA: TBSE (0.05 mM EDTA, 10 mM Tris-HCl, 100 mM NaCl, pH 7; Vap7 folded with +100 mM KCl), 25 C, 30-60 min, 0.1 uM aptamer; 12% gel in 50 mM glycine pH 9.5 with or without 10 mM KCl. Microarray: TBSE, 25 C, 30 min, PBS washes; conditions: protein: commercial; chain copies: 2; label: 5'-FAM; three stem-loops (predicted)
VEGF165 [4] = biological target: T1, VEGF165; experiment: EMSA; 100 mM KCl; EMSA: TBSE (0.05 mM EDTA, 10 mM Tris-HCl, 100 mM NaCl, pH 7; Vap7 folded with +100 mM KCl), 25 C, 30-60 min, 0.1 uM aptamer; 12% gel in 50 mM glycine pH 9.5 with or without 10 mM KCl. Microarray: TBSE, 25 C, 30 min, PBS washes; conditions: protein: commercial; chain copies: 2; G4
VEGF165 [5] = biological target: T1, VEGF165; experiment: EMSA; EMSA: TBSE (0.05 mM EDTA, 10 mM Tris-HCl, 100 mM NaCl, pH 7; Vap7 folded with +100 mM KCl), 25 C, 30-60 min, 0.1 uM aptamer; 12% gel in 50 mM glycine pH 9.5 with or without 10 mM KCl. Microarray: TBSE, 25 C, 30 min, PBS washes; conditions: protein: commercial; chain copies: 2; three stem-loops (predicted)
VEGF165 [6] = biological target: T1, VEGF165; experiment: EMSA; 5 uM VEGF165; two shifted bands; EMSA: TBSE (0.05 mM EDTA, 10 mM Tris-HCl, 100 mM NaCl, pH 7; Vap7 folded with +100 mM KCl), 25 C, 30-60 min, 0.1 uM aptamer; 12% gel in 50 mM glycine pH 9.5 with or without 10 mM KCl. Microarray: TBSE, 25 C, 30 min, PBS washes; conditions: protein: commercial; chain copies: 2; label: 5'-FAM; G4

T1 sequence (P15692 other isoform, or with tags, fused parts or gaps): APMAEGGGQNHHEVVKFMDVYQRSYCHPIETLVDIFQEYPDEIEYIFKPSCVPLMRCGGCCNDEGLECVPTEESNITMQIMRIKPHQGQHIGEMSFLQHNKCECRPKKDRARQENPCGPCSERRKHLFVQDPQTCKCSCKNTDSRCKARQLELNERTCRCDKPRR

TCACGCTTATTTAAGAAGCTGTTTGGTGGAGG (ssDNA, 5'-amino) [Random DNA-NH2]: no binding (VEGF165 [1]).

B1: VEa5-NH2 + Vap7-FAM (mixed)
DNA 1: ATACCAGTCTATTCAATTGGGCCCGTCCGTATGGTGGGTGTGCTGGCCAGATAGTATGTGCAATCA
DNA 2: ATACCAGTCTATTCAATTGCACTCTGTGGGGGTGGACGGGCCGGGTAGA
modifications: 5'-amino on strand 1
B1: binds (VEGF165 [2]).

B2: VEa5-FAM (structured_DNA)
DNA: B1 DNA 1
B2: binds (VEGF165 [3]).

ATACCAGTCTATTCAATTGCACTCTGTGGGGGTGGACGGGCCGGGTAGA (structured_DNA) [Vap7]: binds (VEGF165 [4]).

B3: VEa5 (structured_DNA)
DNA: B1 DNA 1
B3: binds (VEGF165 [5]).

ATACCAGTCTATTCAATTGCACTCTGTGGGGGTGGACGGGCCGGGTAGA (structured_DNA) [Vap7-FAM]: binds (VEGF165 [6]).

B4: Vap7-NH2 + VEa5-FAM (mixed)
DNA 1: B1 DNA 2
DNA 2: B1 DNA 1
modifications: 5'-amino on strand 1
B4: binds (VEGF165 [2]).
